Measurements: patent US12630850B2, “Enzymatic break down of chlorogenic acid in sunflower-containing products” (Chapman University, priority 2022, dated 2026)
“And” between values parts separate entries of the source, which are not always exact repeats. Equal values may be shown once.

Assays:
Format in all cases: biochemical
[1] = Michaelis-Menten assay of CGA hydrolysis in buffer (absorption spectroscopy); conditions: for kcat: CGA in buffer, room temperature
Experimental: Enzymatic assays to determine Michaelis-Menten parameters. Michaelis-Menten assays were conducted at 21° C. using an Agilent Technologies Cary 60 UV-Vis spectrophotometer. A stock solution of CGA was prepared by dissolving CGA in 50 mM HEPES pH 8.0 followed by calculation of concentration using the Lambert-Beer law with an extinction coefficient of 17,194 M^−1 cm^−1 at 330 nm. Subsequent dilutions of stock CGA were prepared to achieve final CGA concentrations of 0.02 mM, 0.04 mM, 0.06 mM, 0.10 mM, 0.20 mM, and 0.40 mM CGA. The final CGA esterase concentration in all enzymatic assays was 10 nM unless noted otherwise. All samples used for enzymatic assays were buffered in 50 mM HEPES, pH 8.0. Absorption scans were taken at 0.05 or 0.1 min intervals for 2 min between wavelengths of 250 nm and 400 nm. For CGA concentrations below 0.1 mM, the pathlength was 1 cm. Above 0.1 mM CGA, the pathlength was 0.5 cm.
To measure CGA depletion (Δ[CGA]), Equation 1 was used: […]
A is the absorbance at any time point in the reaction, Ao is the initial absorbance, εCA and εCGA are the extinction coefficients at 340 nm of caffeic acid (CA) and CGA, which are 4.15 mM^−1 cm^−1 and 14.43 mM^−1 cm^−1, respectively. To generate initial rates, (Δ[CGA]| was plotted against time. The change in absorbance during the first minute of the reaction was fit to a linear curve, which is used to generate the reaction rate. We note that the rate of CGA depletion is equivalent to CA formation. To test the effect of salt on enzyme kinetics, the same procedure was used, except that the experiment was run with 0.04 mM CGA buffered in 50 mM HEPES pH 8.0 with 500 mM NaCl.
Temperature-dependence measurements. A circulating water bath was used to run enzymatic reactions at different temperatures to maintain the temperature in the spectrophotometer within 1° C. of the target temperature. Buffered solution, CGA, and CGA esterase samples were pre-incubated for 10 min at the desired temperature before starting a measurement. All other instrument parameters were the same as for room temperature measurements described above.

[2] = CGA esterase kinetics in sunflower meal
Experimental: Chlorogenic acid esterase kinetics in sunflower meal. To determine the Michaelis-Menten parameters of CGA esterase in undefatted SFM, SFM suspensions were made at following concentrations: 1.0 mg mL^−1, 2.5 mg mL^−1, 10.0 mg mL^−1, 30.0 mg mL^−1, and 100.0 mg mL^−1. All samples were made to a final volume of 10 mL in a solution containing 50 mM HEPES, pH 8.0. Treated samples contained a final enzyme concentration of 10 nM. Reactions were stopped by acidifying the solution by adding 120 μL of 37% HCl at regular intervals for 600 s. Samples were subsequently centrifuged at 10,000 rpm for 10 min. […] The supernatant was then filtered using a 0.2 μm filter and loaded onto an HPLC, as described above. The initial amount of CGA that was present prior to adding enzyme was measured using HPLC.
(§1) HPLC quantification of CGA and CA in sunflower meal and protein isolates. All solutions were diluted ten-fold in 0.1% formic acid in HPLC-grade water before analysis. Quantification of CGA and CA concentration was performed using an Agilent 1260 series HPLC instrument (Agilent Technologies) equipped with a quaternary pump, an automated sample injector, a diode array detector, and a 4.6 mm×150 mm Luna C18(2) column with a 5 μm particle size and 100 Å pore size (Phenomenex). The injection volume was 20 μL. To elute analytes, mobile phases composed of 0.1% formic acid in HPLC-grade water (A) and 0.1% formic acid in HPLC-grade acetonitrile (B) were used in a linear gradient. The gradient is as follows: 0 to 13% B in 1 min, up to 27% B at 8 min, up to 100% B at 8.5 min, isocratic at 100% B to 9.5 min, 100% B returned to 0% B at 9.6 min with 3 min post-time. The concentrations of CGA and CA were calculated from peak integration data based on 10-point standard curve that spanned a concentration range of 0 to 0.1 mg mL^−1.

[3] = CGA and CA content of sunflower protein isolates (HPLC); conditions: enzyme present
Source text: Sunflower meal and sunflower protein treatment with chlorogenic acid esterase. Sunflower seeds were ground using a KitchenAid coffee grinder in two 30 s increments and sieved through a 500 μm filter to make SFM. Two defatting methods were used: cold press and hexane extraction. To make cold pressed SFM, ground seeds were pressed in a Carver Hydraulic Unit Model 3912 3852-0 five times to a pressure of 9,000-10,000 psi. For hexane extracted SFM, fat was removed from ground seeds using a Soxhlet apparatus in 250 mL hexane for 18 h and subsequently dried using a Fischer Scientific Isotemp Oven Model 516G at 45° C. for 3 h. Cold pressed, hexane extracted, and undefatted SFM were then sieved through a 500 μm filter.
To make SPI, 12.5 g of cold pressed, hexane extracted, and undefatted SFM were buffered in 50 mM HEPES at pH 8.0. Samples were continuously stirred for about 10 min until all SFM was completely suspended. Then, 0.2 mg of CGA esterase per g of SFM was added. The final volume for all reactions was 125 mL. In untreated samples, a buffered solution of 50 mM HEPES, pH 8.0 was added instead of the enzyme solution. After 10 min, 0.1 M NaOH was added to each solution until pH reached 9.00±0.03. Samples were left to sit for 30 min and then centrifuged at 5,000 rpm for 20 min at 4° C. The supernatant was placed back into a 250 mL beaker and pH was lowered using 0.1 M HCl to reach an isoelectric pH of 5.00±0.03. Samples were allowed to precipitate at 4° C. overnight (14-16 h). The supernatant was discarded, and the precipitate was lyophilized for 20 h. All experiments (controls and CGA esterase treated samples) were duplicated.
as §1

[4] = CGA in 50 mM HEPES pH 8.0, 20° C.
[5] = SFM supernatant, pH 8.0, 20° C.

B1: CGA esterase: CGA esterase from L. helveticus (Genbank ID: WP_025283955.1, Uniprot ID: U6F2K7), expressed in Escherichia coli; the dimer is the active form (protein, listed as Lactobacillus helveticus)
chain: MSRITIERDGLTLVGDREEPFGEIYDMAIIMHGFAANRNTDLLRQIADDLRDENVASVRFDFNGHGESDGKFEDMTVCNEIADGKAILDYVRTDPHVRDIFLVGHSQGGVVASMLAGLYPDVVKKVVLLAPAAQLKDDALRSNTQGATYDPNHIPDWPLVGNKLGMKLGGFYLRTAQVLPIYEVSQCFTRPVSVIAGTNDQWDPKYAKKYDEVYENSELHMIPNADHRFSGGYKDMAADLTAQFLKPAF
- Temperature until which the enzyme is active [1]: at least 50 °C
- Change of CGA esterase activity with temperature ([1]; 20° C. to 50° C.): increases only weakly
- Km ([1]; 40° C.): 96 ± 6 µM
- Vmax ([1]; 40° C.): 215.4 ± 31.7 mM/min/mg
- Km [1, 4]: 90 ± 38 µM
- Vmax [1, 4]: 170.2 ± 32.3 mM/min/mg
- Vmax ([1]; CGA in 50 mM HEPES pH 8.0, 20° C., listed as L. helveticus): 170.2 mM/min/mg
- kcat [1]: 82 s⁻¹ and 82 ± 15.6 s⁻¹
- kcat ([1]; listed as L. helveticus CGA esterase): 82 s⁻¹
- kcat ([1]; listed as chlorogenic acid esterase from Lactobacillus helveticus): 82 s⁻¹
- Vmax higher than previously reported ([1]; vs Song & Baik, 2017): 300 fold
- Km in SFM lower than in buffered solution [2]: 4.5 fold
- Meal concentration at which maximal CGA hydrolysis activity is achieved [2]: approximately 100 mg mL^−1
- Vmax in SFM lower than in buffered solution [2]: 60 fold
- Km [2, 5]: 20 µM
- Vmax [2, 5]: 2.716 mM/min/mg
- mg CA/g protein ([3]; SPI from cold pressed SFM): 3.62 ± 0.05 mg CA/g protein
- mg CGA/g protein ([3]; SPI from cold pressed SFM): 0.00 ± 0.00 mg CGA/g protein
- mg CA/g protein ([3]; SPI from hexane extracted SFM): 3.38 ± 0.25 mg CA/g protein
- mg CGA/g protein ([3]; SPI from hexane extracted SFM): 0.00 ± 0.00 mg CGA/g protein
- mg CA/g protein ([3]; SPI from undefatted SFM): 1.11 ± 0.38 mg CA/g protein
- mg CGA/g protein ([3]; SPI from undefatted SFM): 0.00 ± 0.00 mg CGA/g protein
